We go through three molecules from PMC8319299, “PALI1 facilitates DNA and nucleosome binding by PRC2 and triggers an allosteric activation of catalysis”.

In data set [1] the target is T1, PALI1 PIR (Homo sapiens, UniProt Q96JN0-3 1058-1250).
T1 sequence: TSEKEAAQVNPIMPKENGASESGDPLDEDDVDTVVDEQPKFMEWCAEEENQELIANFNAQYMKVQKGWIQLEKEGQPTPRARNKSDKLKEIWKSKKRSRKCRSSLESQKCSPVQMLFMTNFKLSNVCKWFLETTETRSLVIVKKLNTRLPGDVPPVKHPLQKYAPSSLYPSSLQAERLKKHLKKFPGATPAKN
Briefly: EMSA; 50 mM Tris-HCl pH 7.5 (25 C), 100 mM KCl, 2 mM 2-mercaptoethanol, 0.1 mg/mL BSA, 0.05% NP-40; FA at 30 C; nucleosome EMSA with 5% glycerol at 4 C (+5 ng/uL salmon sperm DNA for H2A-Cy5 probes); PALI1 PIR EMSA with 5% glycerol, binding at 30 C; probe 5 nM. To be noted: protein: recombinant; tags: MBP removed by TEV; label: 3'-fluorescein; hairpin, 46 bp stem. (In general: A gel shift assay detects complexes by their altered migration in electrophoresis.)

Data set [2] has as its target PRC2-PALI1 PIR (Homo sapiens, UniProt Q15910-2;O75530;Q15022;Q09028;Q96JN0-3 1-751;1-441;1-739;1-425;1058-1250). Put plainly: fluorescence anisotropy; 50 mM Tris-HCl pH 7.5 (25 C), 100 mM KCl, 2 mM 2-mercaptoethanol, 0.1 mg/mL BSA, 0.05% NP-40; FA at 30 C; nucleosome EMSA with 5% glycerol at 4 C (+5 ng/uL salmon sperm DNA for H2A-Cy5 probes); PALI1 PIR EMSA with 5% glycerol, binding at 30 C; probe 5 nM. Particulars: protein: recombinant, tags: His6-MBP (PreScission-cleavable), copies: 1;1;1;1;1, label: 3'-fluorescein; for Kd: hairpin, 46 bp stem.

The target of data set [3] is PRC2 core (EZH2-EED-SUZ12-RBBP4) (Homo sapiens, UniProt Q15910-2;O75530;Q15022;Q09028 1-751;1-441;1-739;1-425). Described as above. Particulars: protein: recombinant; tags: His6-MBP (PreScission-cleavable); copies: 1;1;1;1; label: 3'-fluorescein; G4.
PRC2 core (EZH2-EED-SUZ12-RBBP4), sequence (Q15910 other isoform, or with tags, fused parts or gaps, chain 1 of 4): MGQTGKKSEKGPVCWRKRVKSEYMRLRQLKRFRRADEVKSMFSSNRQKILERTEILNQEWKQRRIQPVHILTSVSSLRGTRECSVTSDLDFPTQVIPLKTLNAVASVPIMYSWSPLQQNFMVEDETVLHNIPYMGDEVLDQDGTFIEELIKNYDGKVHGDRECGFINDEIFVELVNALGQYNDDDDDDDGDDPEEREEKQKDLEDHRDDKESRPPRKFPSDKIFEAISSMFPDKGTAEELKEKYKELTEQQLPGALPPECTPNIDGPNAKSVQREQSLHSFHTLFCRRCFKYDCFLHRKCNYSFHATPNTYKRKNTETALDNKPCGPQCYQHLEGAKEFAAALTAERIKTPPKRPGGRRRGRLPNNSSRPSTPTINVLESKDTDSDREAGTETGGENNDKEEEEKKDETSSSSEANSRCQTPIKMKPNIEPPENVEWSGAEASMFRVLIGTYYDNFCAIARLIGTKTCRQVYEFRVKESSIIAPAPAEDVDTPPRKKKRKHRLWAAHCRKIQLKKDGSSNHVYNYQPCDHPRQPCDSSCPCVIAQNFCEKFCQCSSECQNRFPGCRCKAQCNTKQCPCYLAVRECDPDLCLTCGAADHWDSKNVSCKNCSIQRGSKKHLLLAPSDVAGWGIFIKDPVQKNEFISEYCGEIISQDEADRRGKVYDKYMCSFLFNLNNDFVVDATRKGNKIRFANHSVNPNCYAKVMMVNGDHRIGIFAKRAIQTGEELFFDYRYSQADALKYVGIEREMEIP
PRC2 core (EZH2-EED-SUZ12-RBBP4), sequence (O75530 whole entry, chain 2 of 4): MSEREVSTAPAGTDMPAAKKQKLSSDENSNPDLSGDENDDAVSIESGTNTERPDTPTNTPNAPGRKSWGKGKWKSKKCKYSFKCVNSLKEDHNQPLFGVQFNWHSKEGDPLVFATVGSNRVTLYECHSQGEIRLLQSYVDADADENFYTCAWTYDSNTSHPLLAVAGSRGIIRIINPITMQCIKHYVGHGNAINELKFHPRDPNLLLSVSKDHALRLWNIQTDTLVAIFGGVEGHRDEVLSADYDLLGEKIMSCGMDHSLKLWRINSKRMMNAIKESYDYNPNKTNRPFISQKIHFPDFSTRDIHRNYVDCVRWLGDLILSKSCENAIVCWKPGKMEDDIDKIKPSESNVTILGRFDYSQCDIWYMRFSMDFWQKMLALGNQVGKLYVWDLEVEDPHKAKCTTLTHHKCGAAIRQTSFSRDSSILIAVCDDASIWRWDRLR
PRC2 core (EZH2-EED-SUZ12-RBBP4), sequence (Q15022 whole entry, chain 3 of 4): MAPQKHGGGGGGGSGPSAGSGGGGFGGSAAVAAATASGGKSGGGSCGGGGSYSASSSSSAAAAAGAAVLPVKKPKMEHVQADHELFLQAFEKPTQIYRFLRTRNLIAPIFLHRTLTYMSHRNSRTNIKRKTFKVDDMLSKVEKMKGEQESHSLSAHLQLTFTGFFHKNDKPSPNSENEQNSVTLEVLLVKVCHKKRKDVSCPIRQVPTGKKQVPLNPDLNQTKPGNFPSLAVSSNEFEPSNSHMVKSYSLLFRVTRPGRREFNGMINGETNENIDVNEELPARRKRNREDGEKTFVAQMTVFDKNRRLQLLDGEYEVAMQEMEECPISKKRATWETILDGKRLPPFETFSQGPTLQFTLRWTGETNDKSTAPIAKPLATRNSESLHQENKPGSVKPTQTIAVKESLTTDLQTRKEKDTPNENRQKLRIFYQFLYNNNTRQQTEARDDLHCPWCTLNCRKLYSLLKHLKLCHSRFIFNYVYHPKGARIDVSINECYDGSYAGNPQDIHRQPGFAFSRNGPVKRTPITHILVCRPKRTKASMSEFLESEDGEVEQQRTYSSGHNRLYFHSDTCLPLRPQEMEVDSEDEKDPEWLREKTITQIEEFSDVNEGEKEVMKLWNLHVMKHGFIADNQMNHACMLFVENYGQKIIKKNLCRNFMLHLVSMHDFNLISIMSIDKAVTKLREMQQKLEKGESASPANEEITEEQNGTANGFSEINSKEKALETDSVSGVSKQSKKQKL
PRC2 core (EZH2-EED-SUZ12-RBBP4), sequence (Q09028 whole entry, chain 4 of 4): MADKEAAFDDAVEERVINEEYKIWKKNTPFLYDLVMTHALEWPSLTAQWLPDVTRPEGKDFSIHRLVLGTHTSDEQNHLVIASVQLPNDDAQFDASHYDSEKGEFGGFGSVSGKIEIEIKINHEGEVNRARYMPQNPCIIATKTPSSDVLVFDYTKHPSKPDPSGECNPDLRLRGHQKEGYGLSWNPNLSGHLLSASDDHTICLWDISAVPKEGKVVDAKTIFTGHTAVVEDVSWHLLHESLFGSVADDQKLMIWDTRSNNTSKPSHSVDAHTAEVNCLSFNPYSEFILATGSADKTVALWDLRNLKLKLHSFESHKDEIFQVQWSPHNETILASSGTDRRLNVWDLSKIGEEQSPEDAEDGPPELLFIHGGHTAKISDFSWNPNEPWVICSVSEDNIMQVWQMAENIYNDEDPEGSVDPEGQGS

PRC2-PALI1 PIR, sequence (Q15910 other isoform, or with tags, fused parts or gaps, chain 1 of 4): as the sequence (Q15910 other isoform, or with tags, fused parts or gaps, chain 1 of 4) above
PRC2-PALI1 PIR, sequence (O75530 whole entry, chain 2 of 4): as the sequence (O75530 whole entry, chain 2 of 4) above
PRC2-PALI1 PIR, sequence (Q15022 whole entry, chain 3 of 4): as the sequence (Q15022 whole entry, chain 3 of 4) above
PRC2-PALI1 PIR, sequence (Q09028 whole entry, chain 4 of 4): as the sequence (Q09028 whole entry, chain 4 of 4) above

B1: CpG46 (structured_DNA)
DNA: GGCGCCCTGCCCCGCCTCGCTCTGGCAGAGTGGGGAGCCAGCCGGCGCTAGCCGGCTGGCTCCCCACTCTGCCAGAGCGAGGCGGGGCAGGGCGCC
As to B1, the figures for the Kd in data set [1] and in data set [2] were 2300 ± 300 nM and 155 ± 26 nM, respectively.

B2: CpG46 mt (structured_DNA)
DNA: AATATTTCATTTTATTCTATCTCAATGAGACAAAAGATTGATTAATGCTAATTAATCAATCTTTTGTCTCATTGAGATAGAATAAAATGAAATATT
As for B2, the Kd in data set [2] turned out to be 73.7 ± 10 nM. As to UUAGGGUUAGGGUUAGGGUUAGGG (structured_RNA) [G4 24 RNA], the binding result in data set [3] and in data set [2] (G4) was “binds” each time.

In general, Kd refers to the constant that tells how readily two partners part at equilibrium.
